{"source": "patent US20070111281A1", "key": {"[1]": {"biological_target": "shFcγRIIIa-H6 (soluble human FcγRIIIa with hexahistidine tag, Example 3) (human) (UniProt P08637)", "experiment": "SPR (Biacore1000), receptor coupled to CM5 chip, IgG in flow, steady state"}, "[2]": {"biological_target": "shFcγRIIIa-Q162-H6 (soluble human FcγRIIIa lacking glycosylation at position 162, hexahistidine tag, Example 3) (human) (UniProt P08637)", "experiment": "SPR (Biacore1000), receptor coupled to CM5 chip, IgG in flow, steady state"}}, "note": "pKd: −log10 of the molar value."}
{"substance": "IgG mutant 9 H268D, non-GE glycoform (antibody)", "values": [{"measurement": "pKd", "setting": "[1]", "value": 6.91}, {"measurement": "pKd", "setting": "[2]", "value": 7.06}]}
{"substance": "IgG mutant 20 S239W, non-GE glycoform (antibody)", "values": [{"measurement": "pKd", "setting": "[1]", "value": 6.16}, {"measurement": "pKd", "setting": "[2]", "value": 6.43}]}
{"substance": "IgG mutant 22 F243E, non-GE glycoform (antibody)", "values": [{"measurement": "pKd", "setting": "[1]", "value": 6.05}, {"measurement": "pKd", "setting": "[2]", "value": 6.37}]}
{"substance": "IgG mutant 30 H268E, non-GE glycoform (antibody)", "values": [{"measurement": "pKd", "setting": "[1]", "value": 6.72}, {"measurement": "pKd", "setting": "[2]", "value": 6.82}]}
{"substance": "IgG mutant 43 S239D, non-GE glycoform (antibody)", "values": [{"measurement": "pKd", "setting": "[1]", "value": 7.07}, {"measurement": "pKd", "setting": "[2]", "value": 6.91}]}
{"substance": "IgG mutant 85 F243H, non-GE glycoform (antibody)", "values": [{"measurement": "pKd", "setting": "[1]", "value": 6.27}, {"measurement": "pKd", "setting": "[2]", "value": 6.42}]}
{"substance": "IgG mutant 88 T260H, non-GE glycoform (antibody)", "values": [{"measurement": "pKd", "setting": "[1]", "value": 6.56}, {"measurement": "pKd", "setting": "[2]", "value": 6.54}]}
{"substance": "IgG mutant 98 S239E, non-GE glycoform (antibody)", "values": [{"measurement": "pKd", "setting": "[1]", "value": 6.81}, {"measurement": "pKd", "setting": "[2]", "value": 6.77}]}
{"substance": "control antibody (humanized IgG1), non-GE glycoform", "values": [{"measurement": "pKd", "setting": "[1]", "value": 6.61}, {"measurement": "pKd", "setting": "[2]", "value": 6.67}]}
